# Test results published in patent US20190185531A1 (MIT, published 2019).
# T1: human Bfl-1 (c-myc-tagged) (human, UniProt Q16548 1-151, limits assumed)
# T1 construct: c-myc-tagged in the fluorescence polarization and yeast-display assays; also called c-myc-Bfl-1; Myc-tagged Bfl-1; not shown: c-myc tag
# T1 sequence (looked up): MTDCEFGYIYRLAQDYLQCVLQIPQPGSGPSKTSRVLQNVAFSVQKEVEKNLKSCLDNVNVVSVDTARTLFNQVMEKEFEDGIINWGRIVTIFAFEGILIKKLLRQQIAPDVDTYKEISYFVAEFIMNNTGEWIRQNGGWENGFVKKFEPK
# How the values were obtained:
# [1] = target: T1, human Bfl-1 (c-myc-tagged); experiment: competition fluorescence anisotropy against fluoresceinated Bim BH3
# Method: (§1) Fluorescence polarization assays were performed in order to measure the binding abilities of the peptide constructs. […] C-myc-tagged receptors were used for all Bcl-2 homologs. Plates were mixed at room temperature for 3 h. Experiments were done in triplicate. Data were fit, as described for competition fluorescence anisotropy experiments in Foight et al. (Foight, G. W., Ryan, J. A., Gullá, S. V, Letai, A. & Keating, A. E. Designed BH3 Peptides with High Affinity and Specificity for Targeting Mcl-1 in Cells. ACS Chem. Biol. 9, 1962-8 (2014)), to a complete competitive binding model (equation 17 in Roehrl et al., 2004)(Roehrl, M. H. A., Wang, J. Y. & Wagner, G. A General Framework for Development and Data Analysis of Competitive High-Throughput Screens for Small-Molecule Inhibitors of Protein-Protein Interactions by Fluorescence Polarization^{†}. Biochemistry 43, 16056-16066 (2004)) using a Python script.
# [2] = target: T1, human Bfl-1 (c-myc-tagged); experiment: fluorescence anisotropy competition (FIG. 1E)
# Method: as §1
# [3] = target: T2, human Mcl-1 (c-myc-tagged) (human, UniProt Q07820 172-327); experiment: assay not named in the sentence (competition fluorescence anisotropy elsewhere)
# T2 construct: c-myc-tagged in the fluorescence polarization assay; also called c-myc-Mcl-1; not shown: c-myc tag
# [4] = target: T1, human Bfl-1 (c-myc-tagged); experiment: X-ray crystal structure
# Method: To analyze the structural interactions between the peptides and Bfl-1, crystals of various complexes were grown and diffraction data collected. […] Crystals were seeded with drops containing parent crystals grown in higher ammonium sulfate (2.2-2.4 M) using a cat whisker. The protein was concentrated to 4 mg/ml in 20 mM Tris, 150 mM NaCl, 1% glycerol, 1 mM DTT, pH 8.0 and mixed with peptide at a 1:1 molar ratio. The hanging drops contained 1.5 μl of complex mixed with 1.5 μl of reservoir solution. Crystals were cryo-protected by transferring into 2.0 M lithium sulfate with 10% glycerol prior to flash freezing. Diffraction data were collected at the Advanced Photon Source at the Argonne National Laboratory, NE-CAT beamline 24ID-C. […] The peptide was built into the difference density from the rigid body refinement and the structure was refined with iterative rounds of refinement and model building using PHENIX and COOT.
# T2 sequence (Q07820 172-327 limits assumed): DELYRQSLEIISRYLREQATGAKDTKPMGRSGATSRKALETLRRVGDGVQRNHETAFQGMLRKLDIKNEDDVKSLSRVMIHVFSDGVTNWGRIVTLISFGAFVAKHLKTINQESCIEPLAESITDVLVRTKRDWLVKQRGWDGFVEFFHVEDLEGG
binder,measurement,setting,value
Ac-QWVREIAAGLRLAADNVNAQLER-NH2 [FS1],Ki,[1],15 nM
Ac-QWVREIAAGLRRAADDVNAQVER-NH2 [FS2],"fold increase in affinity against the chimera with smaller residues at G2, D3, A4 and E4",[2],28.6 fold
same,fold weaker than binding to Bfl-1,[3],> 100 fold
"Ac-QWAREIGAGLRRAADDVNAQVER-NH2 (also called PUMA/FS2 chimeric peptides) [PUMA/FS2 chimeric peptide: PUMA with smaller residues at positions G2, D3, A4 and E4]",binding result,[2],binds
"Ac-QWAREIGAQLRRMADDLNAQYER-NH2 (peptide, UniProt Q9BXH1 132-154, looked up, domain: BH3) [Puma BH3 peptide (23 residues)]",binding result,[4],binds
Ac-QWVREIAAQLRRMADDLNAQYER-NH2 (also called PUMA/FS2 chimeric peptides) [PUMA/FS2 chimeric peptide: PUMA with larger residues at positions A2 and E2],fold increase in affinity against PUMA,[2],2.3 fold
